Values belong to the molecule of their own block, whether it stands above or below them.
Assays:
[1] = molecular target: AtCYT6-CTD_(long), the C-terminal domain containing the interdomain linker at its N-terminus (Arabidopsis thaliana); assay: SEC; Superdex 75, 500 uL of protein at up to 2 mg/mL, 20 mM Tris pH 7.5, 50 mM NaCl, nonreducing, room temperature
[2] = molecular target: the molecule itself; assay: SEC; Superdex 200, 500 uL of AtCYT6 at 2 mg/mL, 20 mM Tris pH 7.5, 50 mM NaCl, without or with 2 mM DTT, room temperature
[3] = molecular target: the molecule itself; assay: cross-linking; 0.175% (w/v) glutaraldehyde, protein at 0.3 mg/mL in 20 mM citric acid pH 5.5, 100 mM NaCl, room temperature, 1, 5 and 10 min, read by SDS-PAGE
[4] = molecular target: the molecule itself; assay: SEC; Superdex 75, 500 uL of protein at up to 2 mg/mL, 20 mM Tris pH 7.5, 50 mM NaCl, nonreducing, room temperature
[5] = molecular target: T1, Papain from Carica papaya (Carica papaya, UniProt P00784 134-345); assay: cell-based or functional assay
T1 sequence (looked up): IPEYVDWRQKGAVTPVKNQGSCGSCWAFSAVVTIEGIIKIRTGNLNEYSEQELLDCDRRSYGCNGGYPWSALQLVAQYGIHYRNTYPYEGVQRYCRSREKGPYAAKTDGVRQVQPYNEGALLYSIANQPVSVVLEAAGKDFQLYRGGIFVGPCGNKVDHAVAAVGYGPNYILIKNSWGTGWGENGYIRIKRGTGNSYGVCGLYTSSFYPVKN

B1: Arabidopsis thaliana phytocystatin 6 (AtCYT6), full-length AtCYT6 lacking the N-terminal signal peptide (natural protein, UniProt Q8H0X6 35-234, looked up)
chain: ALVGGVGDVPANQNSGEVESLARFAVDEHNKKENALLEFARVVKAKEQVVAGTLHHLTLEILEAGQKKLYEAKVWVKPWLNFKELQEFKPASDAPAITSSDLGCKQGEHESGWREVPGDDPEVKHVAEQAVKTIQQRSNSLFPYELLEVVHAKAEVTGEAAKYNMLLKLKRGEKEEKFKVEVHKNHEGALHLNHAEQHHD
notes: Cystatin 6 (phytocystatin 6) of Arabidopsis thaliana without the N-terminal signal peptide (M1-M34); both cystatin domains and the interdomain linker with Cys138; pET-15b vector; In the functional rows on fibrils this protein stood as washed amyloid fibrils (heated at 80 °C, pH 3.0); also called cystatin 6 from A. thaliana; source: E. coli BL21 (DE3), purified (Ni2+ IMAC, gel filtration)
binding result [2]: binds

B2: AtCYT6, alkylated before cross-linking (natural protein, Arabidopsis thaliana, UniProt Q8H0X6 35-234, looked up)
chain: ALVGGVGDVPANQNSGEVESLARFAVDEHNKKENALLEFARVVKAKEQVVAGTLHHLTLEILEAGQKKLYEAKVWVKPWLNFKELQEFKPASDAPAITSSDLGCKQGEHESGWREVPGDDPEVKHVAEQAVKTIQQRSNSLFPYELLEVVHAKAEVTGEAAKYNMLLKLKRGEKEEKFKVEVHKNHEGALHLNHAEQHHD
modifications: alkylated to prevent disulfide-mediated dimerization via Cys138
notes: As m1: cystatin 6 of Arabidopsis thaliana without the N-terminal signal peptide (M1-M34); Ala35 to Asp234 according to Uniprot ID Q8H0X6; source: E. coli BL21 (DE3), purified (Ni2+ IMAC, gel filtration), then alkylated
stoichiometry N [3]: 2

Further lines, with some results ahead:

stoichiometry N [1]: 2
Molecule: AtCYT6-CTD_(long), the C-terminal domain containing the interdomain linker at its N-terminus (domain or fragment)

IC50 of papain inhibition in a fluorescence substrate assay: dimer peak fraction of AtCYT6-NTD against the monomer peak fraction [5]: 10 fold
B3: AtCYT6-NTD, the isolated N-terminal cystatin domain of AtCYT6 (domain or fragment, Arabidopsis thaliana, UniProt Q8H0X6 35-127, looked up)
chain: ALVGGVGDVPANQNSGEVESLARFAVDEHNKKENALLEFARVVKAKEQVVAGTLHHLTLEILEAGQKKLYEAKVWVKPWLNFKELQEFKPASD
notes: N-terminal cystatin domain of cystatin 6 of Arabidopsis thaliana; no cysteine; The limits Ala35–Asp127 are printed for the AlphaFold model named AtCYT6-NTD, on Uniprot ID Q8H0X6; pET-28a vector; also called N-terminal domain; source: E. coli BL21 (DE3), purified (Ni2+ IMAC, gel filtration)
stoichiometry N [4]: 2

From article PMC10702442, “Arabidopsis thaliana Phytocystatin 6 Forms Functional Oligomer and Amyloid Fibril States” (Biochemistry, 2023)
